By IC50 is commonly meant the concentration that gives 50% inhibition. A high value points to weaker potency in that assay. The term EC50 denotes the concentration giving half of the maximal effect.

Experiment [1] has as its target T1, human cell-surface CD3 (Cluster of Differentiation 3) on Jurkat cells (human, UniProt P07766 23-207).
T1 construct: whole, on cells; CD3 is a complex of several chains; also called human CD3; CD3 T-cell-surface molecule
Nature of the experiment: competition FACS on Jurkat cells; competitor OKT3-PE at 0.02 µg/mL.

Experiment [2] deals with T1, human cell-surface CD3 (Cluster of …). Nature of the experiment: direct binding by FACS, dilution series on 3×10^5 Jurkat cells.

B1: VH2ala/Vκ2 humanized anti-CD3 mAb (antibody, V domains shown)
VH: QVQLVQSGSELKKPGASVKVSCKASGYTFTRYTMHWVRQAPGKGLEWIGYINPSRGYTNYNQKFKDRATITTDKSTSTAYMELSSLRSEDTAVYYCARYYDDHYALDYWGQGTLVTVSS
VL: QIVLTQSPATLSLSPGERATLSCSASSSVSYMNWYQQKPGKAPKRWIYDTSKLASGVPSRFSGSGSGTDYTLTISSLQPEDFATYYCQQWSSNPFTFGGGTKVEIKR
Molecule B1 had an IC50 in experiment [1] of 0.045 µg/mL.

B2: VH2val/Vκ2 humanized anti-CD3 mAb (antibody, V domains shown)
VH: QVQLVQSGSELKKPGASVKVSCKASGYTFTRYTMHWVRQAPGKGLEWIGYINPSRGYTNYNQKFKDRATITTDKSTSTAYMELSSLRSEDTAVYYCARYYDDHYVLDYWGQGTLVTVSS
VL: QIVLTQSPATLSLSPGERATLSCSASSSVSYMNWYQQKPGKAPKRWIYDTSKLASGVPSRFSGSGSGTDYTLTISSLQPEDFATYYCQQWSSNPFTFGGGTKVEIKR
Consider B2, for which, in experiment [1], the half-inhibitory concentration (IC50) is 0.055 µg/mL.

B3: VH2ser/Vκ2 humanized anti-CD3 mAb (antibody, V domains shown)
VH: QVQLVQSGSELKKPGASVKVSCKASGYTFTRYTMHWVRQAPGKGLEWIGYINPSRGYTNYNQKFKDRATITTDKSTSTAYMELSSLRSEDTAVYYCARYYDDHYSLDYWGQGTLVTVSS
VL: QIVLTQSPATLSLSPGERATLSCSASSSVSYMNWYQQKPGKAPKRWIYDTSKLASGVPSRFSGSGSGTDYTLTISSLQPEDFATYYCQQWSSNPFTFGGGTKVEIK
notes: Human IgG4 (Ser241Pro) / κ; also called VH2ser/Vκ2 mutant; VH2scr/VK2
In experiment [1], B3 gave an IC50 of 0.041 µg/mL.

B4: OKT3-PE labeled conjugate (Abcam Cat. No. ab86882) (antibody, mouse IgG2a, V domains shown)
VH: not shown
VL: QIVLTQSPAIMSASPGEKVTMTCSASSSVSYMNWYQQKSGTSPKRWIYDTSKLASGVPAHFRGSGSGTSYSLTISGMEAEDAATYYCQQWSSNPFTFGSGTKLEINR
modifications: PE (phycoerythrin) conjugate, site not stated
notes: Bought PE conjugate of OKT3; also called labeled OKT3
B4 gave an EC50 in experiment [2] of 0.02 µg/mL.

The values above are taken from US20180244778A1 (THERAPIX BIOSCIENCES, published 2018).
